From PMC8262916 come the findings set out here.

Series [1] addresses Nsp12T;Nsp7;Nsp8 (SARS-CoV-2;SARS-CoV-2;SARS-CoV-2, UniProt P0DTD1;P0DTD1;P0DTD1 4393-5324;3860-3942;3943-4140, ||). Put plainly: EMSA.
The target in series [2] is Nsp12A;Nsp7;Nsp8 (SARS-CoV-2;SARS-CoV-2;SARS-CoV-2, UniProt P0DTD1;P0DTD1;P0DTD1 4393-5324;3860-3942;3943-4140, ||). In words: EMSA; 2 mM Mg2+; 100 nM RNA. On the technique in general: In EMSA bound probe runs differently from free probe, usually more slowly.

UUUUCAUGCUACGCGUAGUUUUCUACGCG (structured_RNA) [4N RNA hairpin scaffold]: the binding result in series [1] and in series [2] was “binds” throughout.
